B1: Syntaxin UFE1 (Saccharomyces cerevisiae), P41834 (parent)
chain: MMSDLTPIFRKYVAVIDDARNEQNGIDDHVERKQEDFGNSNETCEMFRDSFIKECARLLKFLVELNKVIKQIEKNYLDDFNMSDAEKDEFDMECRLQIQQYFKKFEFLENYEMERHNLSLKRFQSKSHRWSKILSNKNDNTKHVIHPQDIENGVYEFRLGVLRCLNLWIKYVSSKFTTIQQERLILENKMNFNSTPMPTLSNNADDFSADAIDISVSQSAPVETVQDEVKHYEETISKLTQEQLQVLETEHSELLNQKNEQLKKVETINKTILDIVNIQNELSNHLTVQSQNINLMLNNQDDIELNIKKGNKELRKAKRAAGRTAKMTTYGAIIMGVFILFLDYVG
partner: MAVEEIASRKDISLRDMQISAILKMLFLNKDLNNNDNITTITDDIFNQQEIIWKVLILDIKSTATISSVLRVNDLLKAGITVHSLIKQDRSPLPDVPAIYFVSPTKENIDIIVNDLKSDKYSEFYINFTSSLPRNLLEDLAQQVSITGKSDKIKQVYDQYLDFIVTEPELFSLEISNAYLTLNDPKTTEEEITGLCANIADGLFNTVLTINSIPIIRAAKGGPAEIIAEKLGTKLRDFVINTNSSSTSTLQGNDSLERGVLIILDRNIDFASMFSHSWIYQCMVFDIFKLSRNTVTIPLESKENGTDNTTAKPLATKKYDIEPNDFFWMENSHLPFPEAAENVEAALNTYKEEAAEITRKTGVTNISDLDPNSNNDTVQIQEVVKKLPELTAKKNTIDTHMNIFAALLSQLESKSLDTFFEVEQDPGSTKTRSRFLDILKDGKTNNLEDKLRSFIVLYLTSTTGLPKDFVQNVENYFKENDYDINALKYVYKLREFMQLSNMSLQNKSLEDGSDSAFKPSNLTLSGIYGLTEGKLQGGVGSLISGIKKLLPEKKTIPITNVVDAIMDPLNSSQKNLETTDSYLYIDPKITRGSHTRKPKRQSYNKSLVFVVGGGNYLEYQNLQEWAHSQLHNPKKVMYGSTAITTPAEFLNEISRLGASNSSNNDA
B2: Protein SLY1 (Saccharomyces cerevisiae), P22213 (parent)
chain: B1 partner
partner: B1 chain

Variants of: B1
Conditions: with sly1_yeast SLY1, P22213

| Variant | effect of a mutation on the interaction |
| --- | --- |
| F9A | disrupting interaction |

Variants of: B2
Conditions: with ufe1_yeast UFE1, P41834

| Variant | effect of a mutation on the interaction |
| --- | --- |
| L137R | disrupting interaction |

Variants of: B2
Conditions: with ufe1_yeast UFE1, P41834
Remark: another data set of the same source

| Variant | effect of a mutation on the interaction |
| --- | --- |
| L137R | decreasing interaction |

From IntAct's records for PubMed 18007658
